The text below walks through data of paper PMC60004 (BMC Biochemistry, 2001).

Assay [1] has as its target Bombyx mori cadherin-like receptor BtR175, native, 175 kDa (Bombyx mori (endogenous in larval …)). The experiment in a line: SPR.
In assay [2] the target is Bombyx mori aminopeptidase N, native, 115-kDa (115-120 kDa) Cry1Aa-binding receptor (Bombyx mori (endogenous in larval …)). The experiment in a line: SPR. For orientation: Surface plasmon resonance follows binding to a sensor surface in real time, without labels.

As usually defined, the Kd is the concentration at which binding is half-saturated. A low value points to a tighter complex. In general, koff refers to the first-order rate constant of dissociation. High values mean a short-lived complex, low ones a long-lived complex. The kon is the second-order rate constant of association. The low end stands for slow association, the high end for fast association.

B1: Bacillus thuringiensis Cry1Aa toxin (trypsin-activated, wild type) (domain or fragment)
chain: not shown
In assay [1], B1 showed an equilibrium dissociation constant (Kd) of 2.6 nM, a koff of 3.3e-05 s⁻¹ and an association rate constant (kon) of 13000 ± 6.1 M⁻¹ s⁻¹. In assay [2], this molecule gave a Kd of 75 nM, an off-rate (koff) of 0.0015 s⁻¹ and a kon of 20000 M⁻¹ s⁻¹.
